This note sets out measurements from article PMC9288512.

Residue numbers refer to the chain shown, from its start. Names may count otherwise. Where only a bound is given, the exact number is not on record here.

A word on the Kd: it is the constant that tells how readily two partners part at equilibrium.

The target in the assay is recombinant human proprotein convertase subtilisin/kexin 9 (hPCSK9), his-tagged, Q8NBP7. The experiment in a line: SPR. The conditions noted are these: chain shown with the change; 25 ℃; parent: ~5.013.
recombinant human proprotein convertase subtilisin/kexin 9 (hPCSK9), his-tagged, Q8NBP7, sequence (Q8NBP7 153-692): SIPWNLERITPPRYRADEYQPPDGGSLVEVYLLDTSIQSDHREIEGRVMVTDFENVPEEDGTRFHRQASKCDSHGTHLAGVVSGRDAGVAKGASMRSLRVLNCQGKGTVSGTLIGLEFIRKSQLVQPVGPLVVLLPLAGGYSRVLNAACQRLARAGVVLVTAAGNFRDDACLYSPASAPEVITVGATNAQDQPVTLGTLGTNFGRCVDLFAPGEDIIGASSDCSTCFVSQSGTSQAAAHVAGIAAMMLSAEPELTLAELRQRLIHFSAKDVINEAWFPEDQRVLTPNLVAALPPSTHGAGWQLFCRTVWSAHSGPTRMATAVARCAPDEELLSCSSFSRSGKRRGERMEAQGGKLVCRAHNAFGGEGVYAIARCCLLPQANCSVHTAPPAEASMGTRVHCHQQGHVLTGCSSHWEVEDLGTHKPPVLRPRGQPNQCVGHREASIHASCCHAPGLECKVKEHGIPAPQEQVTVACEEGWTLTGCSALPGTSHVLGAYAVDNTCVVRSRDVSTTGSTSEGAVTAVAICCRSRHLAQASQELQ

B1: VHH-B11 (monovalent camelid nanobody against hPCSK9) FR1:Q1E; FR1:Q5L; FR1:S11L; FR1:A14P; FR1:T23A; FR1:V24A; FR3:V87L; FR3:K95R; FR3:P96A; FR3:M101V (protein)
chain: EVQLLESGGGLVQPGGSLRLSCAASGYTYSSNCMGWFRQAPGKEHEGVASIYIGGGSTYYADSVKGRFTISQDNAKNTLYLQMNSLRAEDTAVYYCAVGCQGLVDFGYWDQGTQVTVSS
On to B1, for which the equilibrium dissociation constant (Kd) is 3.22 nM.

B2: VHH-B11 (monovalent camelid nanobody against hPCSK9) FR1:Q1E; FR1:Q5L; FR1:S11L; FR1:A14P; FR1:T23A; FR1:V24A; FR2:A54S; FR3:A83S; FR3:K95R; FR3:P96A; FR3:M101V (protein)
chain: B1 chain with A49S, A75S, L79V
On to B2, for which the Kd came out at 11.3 nM.

B3: VHH-B11 (monovalent camelid nanobody against hPCSK9) FR1:Q1E; FR1:Q5L; FR1:S11L; FR1:A14P; FR1:T23A; FR1:V24A; FR2:A54S; FR3:A83S; FR3:V87L; FR3:K95R; … (protein)
chain: B1 chain with A49S, A75S
Regarding B3, the Kd is greater than 1000 nM.

B4: VHH-B11 (monovalent camelid nanobody against hPCSK9) FR1:Q1E; FR1:Q5L; FR1:S11L; FR1:A14P; FR1:T23A; FR1:V24A; FR2:A54S; FR3:V87L; FR3:K95R; FR3:P96A; FR3:M101V (protein)
chain: B1 chain with A49S
Turning to B4, the Kd was greater than 1000 nM.

B5: VHH-B11 (monovalent camelid nanobody against hPCSK9) FR1:Q1E; FR1:Q5L; FR1:S11L; FR1:A14P; FR2:A54S; FR3:Q80R; FR3:A83S; FR3:V87L; FR3:K95R; FR3:P96A; FR3:M101V (protein)
chain: B1 chain with A23T, A24V, A49S, Q72R, A75S
As for B5, the Kd stood at 7.99 nM.
